# Laboratory results taken from the supplement of paper PMC9170038.
# Tested on: MS2 coat protein
# Assay: apparent KD of MS2 coat protein; designed switch direction (-1 OFF switch, 1 ON switch): 1; higher = weaker reporter binding
# Summary of the method: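 On Illumina chips, designed RNA switches with common flanks were made by stalled E. coli RNA polymerase. Titrations with SNAP-549-labelled MS2 coat protein, doubling from 0.7 or 1.5 nM to 3 µM, were done with no input, with 200 uM small-molecule ligand, or with an oligonucleotide input. Apparent KD is the median per design over clusters, from curve fits of normalised cluster fluorescence.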
# [1] = input ligand: microRNA oligo, concentration not stated
# [2] = Eterna round: R95, input ligand: FMN 200 uM
# [3] = Eterna round: R95, input ligand: microRNA oligo, concentration not stated
# [4] = Eterna round: R95, input ligand: none
Sequence,apparent KD of MS2 coat protein (input ligand: FMN 200 uM) [µM],apparent KD of MS2 coat protein [1] [µM],apparent KD of MS2 coat protein (input ligand: none) [µM],apparent KD of MS2 coat protein [2] [µM],apparent KD of MS2 coat protein [3] [µM],apparent KD of MS2 coat protein [4] [µM]
"GUAAAGAAAUAAGGAUAUUGAAUACAUAUGUUUAACAUGAGGAUCACCCAUGUGGGUUGCGGUAUCGAGAAGGUAUAAUAAAAG [Mat - Same State NG 2 - JL mod - D8] (Eterna round: R96, puzzle: Same State NG 2)",0.162,0.171,0.168,–,–,–
GACAAUCUAUCUGAGGAUAUCAUGAAGAAAACAUGAGGAUCACCCAUGUGCAGGAUAACUGCAAAUGAGAAGGCAGAUAGAUUGG [Mat - Same State 2 - Mod - D3] (puzzle: Same State 2),–,–,–,0.0109,0.0168,0.02
GAGGCACAUGAGGAUCACCCAUGUGGGUAGAACAUAGGAUAUCACCAACAAAUUACCCGGUGAGAAGGAUGAUGCC [Zalaarza] (puzzle: Same State 1),–,–,–,–,0.151,–
"UUUAUAUUCAGAGGAUAUUGAUGUUGUAUUUUACAAGAAGGCUGAUUGUUUUGUAAUGUUAUUAUACAUGAGGAUCACCCAUGU [JR_SSNG1_Sub014] (Eterna round: R96, puzzle: Same State NG 1)",–,0.0173,–,–,–,–
"AGCUAUUAAUCAGGAUAUGGUCACAUGAGGAUCACCCAUGUGUAGAUGAUAAAAUGUGGUCAACACUAGAAGGGAUUGCUAACA [SameState NG2 #61] (Eterna round: R96, puzzle: Same State NG 2)",0.0268,0.0251,0.037,–,–,–
"GGACGUCAUCUCACUGAUUAACAUGAGGAUCACCCAUGUUCACAGGAUAUGAGUCCGAUUAGGACUCAGAAGGGUGAGACGUCC [Fiskers NG3ss - 47] (Eterna round: R96, puzzle: Same State NG 3)",0.0193,0.0168,0.0193,–,–,–
GGAGCCGGCACUGAGGAUAUUCAUAUUAAAACAUGAGGAUCACCCAUGUAGGCCAGAAGGCCUUGGGAGAAGGCGGGUCGGCCCG [Bibimoar - 3] (puzzle: Same State 2),–,–,–,0.0272,0.36,0.647
"AGGAGUAUCUGACAUGAGGAUCACCCAUGUUCCAUUCUACGAUAGGAUAUCGAAAUACAAAGACGCGAGAAGGAUCAGAACCUA [Eternabot solution 48] (Eterna round: R96, puzzle: Same State NG 3)",0.0232,0.0165,0.0268,–,–,–
"GGGUAGAUUUGAGGAUAUCCUUAACCAACAUGAGGAUCACCCAUGUCCAAAAGAGUUCAUUUACCGGAGAAGGCAGAUGCACCC [Eternabot solution 50] (Eterna round: R96, puzzle: Same State NG 2)",0.0747,0.0614,0.0864,–,–,–
"UUGAUGAACUGAGGAUAUCGAGUCGUCUGAUUAUACAUGAGGAUCACCCAUGUGGGUUGUGGUAUCGAGAAGGCAGAUUACUUA [JR_SSNG2_Sub032] (Eterna round: R96, puzzle: Same State NG 2)",0.0828,0.117,0.26,–,–,–
AUUUAACAAGCUUUUUGCUCGUCUUAUAAACAUGAGGAUCACCCAUGUAAUAGCGUGAGAGUAAAUUUAUAAAUAAU [JMF 88] (puzzle: Sensor for hsa-mir-208a),–,–,–,0.0157,0.0425,0.0147
CUCAAACAUGAGGAUCACCCAUGUGUUGUCAUGGGAGGAUAUCUAAGUUCGUUGUAUUCGGGAGAAGGCCUAUGUC [× ×•×ª×• ×ž×“×™× ×” × ×—×ª-10] (puzzle: Same State 1),–,–,–,–,0.199,–
"AUAACAAUGGCAGGAUAUGGGAUUGGAAGUGUUCCAGAAGGGCCAUAACGGCGAUGGACAUGAGGAUCACCCAUGUCUUAGCCU [MOD2 Powerstrip SSNG 1.4] (Eterna round: R96, puzzle: Same State NG 1)",0.0143,0.00626,0.015,–,–,–
AUUAAACAUGAGGAUCACCCAUGUCAACAAAGUCGAGGAUAUGGGCAAAUAAAAUAAGAACCAGAAGGCGUAUAAU [salish99_ss1_r3_077] (puzzle: Same State 1),–,–,–,0.0759,0.363,0.636
GGAGAACAUGAGGAUCACCCAUGUAAGAGAGUUGUAGGAUAUGUGAGGAGCAGAGGAUGAACAGAAGGACAUGGAG [JR_SS!_Sub070] (puzzle: Same State 1),–,–,–,0.042,0.0493,0.0564
UAGUACAUGCUUUUUGUCUGUCUUAGAUAACAUGAGGAUCACCCAUGUAAGGUGAAAGUUAUAUAGUUUAUGAAUAU [JR_SHM208A_Sub058] (puzzle: Sensor for hsa-mir-208a),–,–,–,0.188,0.347,0.264
AAAGGACAUGAGGAUCACCCAUGUAGAAAAUACACAGGAUAUCGUCAUAUCGAAUUAUAAUGAGAAGGGUGCAAAA [Vebeinlala] (puzzle: Same State 1),–,–,–,0.0599,0.273,0.124
